The star is where a group is joined. Cy3 = disulfo-cyanine carboxylic acid dye; Cy5 = disulfo-cyanine carboxylic acid dye; Palmitoyl = CCCCCCCCCCCCCCCC(=O)*

The chains are these.
B1: peptide amphiphile labelled with the sulfonated cyanine dye Cy5 (peptide)
peptide: Palmitoyl-AAAAAAEEEK(Cy5)-NH2
notes: designed peptide amphiphile; Made on MBHA rink amide resin, so the C-terminus is probably an amide (surmised); also called Cy5-PA; PA-Cy5; source: synthetic peptide (Fmoc solid-phase synthesis, purified by reversed-phase HPLC)
B2: peptide amphiphile labelled with the sulfonated cyanine dye Cy3 (peptide)
peptide: Palmitoyl-AAAAAAEEEK(Cy3)-NH2
notes: designed peptide amphiphile; Made on MBHA rink amide resin, so the C-terminus is probably an amide (surmised); also called Cy3-PA; PA-Cy3; source: synthetic peptide (Fmoc solid-phase synthesis, purified by reversed-phase HPLC)

For test [1], the target named is T1, non-labelled peptide amphiphile (palmitic acid tail, six alanines, three glutamic acids).
T1 construct: designed peptide amphiphile, not a stretch of a natural protein; also called non-labelled PA; unlabelled PA; source: synthetic peptide (Fmoc solid-phase synthesis, purified by reversed-phase HPLC)
T1 peptide: Palmitoyl-AAAAAAEEE-NH2
In words: FRET or BRET; nanofibres co-assembled from non-labelled PA with Cy3-PA (1 mol%) and Cy5-PA (0, 0.1, 0.2 and 0.5 mol%); 10 mM HEPES pH 7.5, NaCl 150 mM, final PA concentration 0.5 mM; emission spectra at the Cy3 excitation wavelength 520 nm. The settings on record: both partners purified. On the technique in general: Bioluminescence resonance energy transfer reports proximity on the nanometre scale.

Test [2] has as its target B2. The description is as above. The settings on record: both partners purified.

Turning to B1, the binding result in test [1] and in test [2] was “binds” in each case. B2: the binding result in test [1] was “binds”.
